Results reported in PMC3429342.
pKd: −log10 of the molar value.

Key:
Experiment in all cases: AUC
[1] = molecular target: Dscam1 3C.31.8 fragment containing the N-terminal 8 Ig domains (Drosophila melanogaster)
[2] = molecular target: Dscam1 4C.31.8 fragment containing the N-terminal 8 Ig domains (Drosophila melanogaster)
[3] = molecular target: Dscam1 11C.27.25 fragment containing the N-terminal 8 Ig domains (Drosophila melanogaster)
[4] = molecular target: Dscam1 10C.27.25 fragment containing the N-terminal 8 Ig domains (Drosophila melanogaster)
[5] = molecular target: Dscam1^3.31.8 fragment containing the N-terminal 8 Ig domains (Drosophila melanogaster)
[6] = molecular target: Dscam1^10.27.25 fragment containing the N-terminal 8 Ig domains (Drosophila melanogaster)

“Dscam1 3C.31.8 fragment containing the N-terminal 8 Ig domains (domain or fragment)” showed a pKd [1] of under 3.30 and a pKd [2] of 6.00.
“Dscam1 4C.31.8 fragment containing the N-terminal 8 Ig domains (domain or fragment)” showed a pKd [2] of under 3.30.
Substance “Dscam1 10C.27.25 fragment containing the N-terminal 8 Ig domains (domain or fragment)” has a pKd [3] of 5.34 and a pKd [4] of under 3.30.
“Dscam1 11C.27.25 fragment containing the N-terminal 8 Ig domains (domain or fragment)” gave a pKd [3] of under 3.30.
Work on “Dscam1^3.31.8 fragment containing the N-terminal 8 Ig domains (domain or fragment)” yielded a pKd [5] of 5.67 and a stoichiometry N [5] of 2.
With “Dscam1^10.27.25 fragment containing the N-terminal 8 Ig domains (domain or fragment)” the pKd [6] was 6.00 and the stoichiometry N [6] was 2.
